We go through one substance from patent US7582290.

The target of experiment [1] is Elongation factor 2 (EF-2), wild type, endogenous in PER.C6 and 293 cells (human) (UniProt P13639). The experiment can be described thus: cell-based or functional assay.
Experiment [2] addresses Elongation factor 2 (EF-2) with glycine to arginine mutation at codon 705, in DPL cells (derived from PER.C6) (human) (UniProt P13639). Put plainly: cell-based or functional assay.

With “Diphtheria toxin (DT) (from UniProt P00588 33-567) (enzyme)”, in experiment [1], the cell death in the presence of DT (293 wt cells) was found to be 100 pM; the cell death in the presence of DT (PER.C6 cells) came out at 100 pM; the cell death within 24 hrs in the presence of DT (PER.C6 and 293 cells) came to 10 pM. Further, in experiment [2], the cell growth in the presence of DT (DPLR1 cells) was found to be 100 pM, the cell survival in the presence of DT (DPLR3 cells) was found to be 10 nM and the resistance of cells to DT (DPL cells) was 1 nM.
